# Assay results taken from patent US20220089702A1 (published 2022).
# B1: 7G6 (antibody, V domains shown)
# VH: EVQLQQSGAELVRPGALVKLSCKASGFNIKDYYIHWVKQRPEQGLEWIGWIDPENGETVYDPKFQGKASITSDTSSNTAYLQLRSLTSEDTAVYYSTSLDFWGQGTSVTVSS
# VL: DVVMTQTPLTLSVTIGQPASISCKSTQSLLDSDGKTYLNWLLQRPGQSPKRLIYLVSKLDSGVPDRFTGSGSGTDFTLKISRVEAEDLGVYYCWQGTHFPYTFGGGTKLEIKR
# Target: recombinant human tau
# Assay: SPR
binder,measurement,value
B1,Kd,5.77 nM
